Laboratory results published in FireProtDB (doi:10.1016/j.jmb.2003.08.024).

B1: Ribonuclease, P00648 (parent)
chain: MMKMEGIALKKRLSWISVCLLVLVSAAGMLFSTAAKTETSSHKAHTEAQVINTFDGVADYLQTYHKLPDNYITKSEAQALGWVASKGNLADVAPGKSIGGDIFSNREGKLPGKSGRTWREADINYTSGFRNSDRILYSSDWLIYKTTDHYQTFTKIR

Variants of: B1
Settings: Bacillus amyloliquefaciens, GdnHCl, Hydrogen exchange, HCl 27.5 mM, reversible: yes, structure 1BNI, whole UniProt chain shown

| Variant | ddG of mutation (higher = less stable) (pH 6.8, 30 °C, Imidazole 50 mM) | denaturant m value (pH 6.8, 30 °C, Imidazole 50 mM) | ddG of mutation (higher = less stable) (pH 7.5, 25 °C, Imidazole 50 mM) | denaturant m value (pH 7.5, 25 °C, Imidazole 50 mM) | ddG of mutation (higher = less stable) (pH 7.6, 37 °C, Imidazole 50 mM) | denaturant m value (pH 7.6, 37 °C, Imidazole 50 mM) | ddG of mutation (higher = less stable) (pH 7.9, 37 °C, Tris 50 mM) | denaturant m value (pH 7.9, 37 °C, Tris 50 mM) |
| --- | --- | --- | --- | --- | --- | --- | --- | --- |
| MMKMEGIALKKRLSWISVCLLVLVSAAGMLFSTAAKTETSSHKAHTEAQVINTFDGVADYLQTYHKLPDNYITKSEAQALGWVASKGNLADVAPGKSIGGDIFSAREGKLPGKSGRTWREADINYTSGFRNSDRILYSSDWLIYKTTDHYQTFTKIR [N105A] | 1.8 kcal/mol | 4.91 kcal/mol/M | – | – | – | – | – | – |
| MMKMEGIALKKRLSWISVCLLVLVSAAGMLFSTAAKTETSSHKAHTEAQVINTFDGVADYLQTYHKLPDNYITKSEAQALGWVASKGNLADVAPGKSIGGDIFSNREGKLPGKSGRTWREADINYTSGFRNSDRILYASDWLIYKTTDHYQTFTKIR [S138A] | 1.8 kcal/mol | 4.91 kcal/mol/M | – | – | – | – | – | – |
| MMKMEGIALKKRLSWISVCLLVLVSAAGMLFSTAAKTETSSHKAHTEAQVINTFDGVADYLQTYHKLPDNYITKSEAQALGWVASKGNLADVAPGKSIGGDIFSNREGKLPGKSGRTWREADINYTSGFRNCDRILYSSDWLIYKTTDCYQTFTKIR [S132C H149C] | – | – | -4.3 kcal/mol | 4.91 kcal/mol/M | -4.6 kcal/mol | 4.91 kcal/mol/M | -4.5 kcal/mol | 4.91 kcal/mol/M |
| MMKMEGIALKKRLSWISVCLLVLVSAAGMLFSTAAKTETSSHKAHTEAQVINTFDGVADYLQTYHKLPDNYITKSEAQALGWVASKGNLCDVAPGKSIGGDIFSNREGKLPGKSGRTWREADINYTCGFRNSDRILYSSDWLIYKTTDHYQTFTKIR [A90C S127C] | – | – | -1.9 kcal/mol | 4.91 kcal/mol/M | -1.9 kcal/mol | 4.91 kcal/mol/M | -1.8 kcal/mol | 4.91 kcal/mol/M |
